The values below come from IntAct's records for PubMed 25096571.

The target in the test is FOXP3, Q9BZS1-1.
FOXP3, Q9BZS1-1, sequence (Q9BZS1 whole entry): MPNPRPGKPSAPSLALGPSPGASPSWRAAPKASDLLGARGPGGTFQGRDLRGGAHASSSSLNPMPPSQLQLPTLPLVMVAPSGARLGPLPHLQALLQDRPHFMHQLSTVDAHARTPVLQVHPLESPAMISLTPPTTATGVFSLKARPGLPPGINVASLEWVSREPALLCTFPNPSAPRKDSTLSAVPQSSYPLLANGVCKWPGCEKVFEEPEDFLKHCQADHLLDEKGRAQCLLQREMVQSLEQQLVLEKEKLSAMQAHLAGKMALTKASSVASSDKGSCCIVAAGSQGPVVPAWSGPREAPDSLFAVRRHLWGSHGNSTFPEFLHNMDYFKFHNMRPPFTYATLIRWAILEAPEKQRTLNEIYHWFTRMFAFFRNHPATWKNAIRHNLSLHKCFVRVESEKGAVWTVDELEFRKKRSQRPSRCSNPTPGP

For “Serine/threonine-protein kinase pim-1 (Homo sapiens), P11309-1 K67M”, the “effect of a mutation on the interaction” value is on record as “disrupting interaction strength”.
